# Data: the supplement of paper PMC5998384
# Tests used:
# HeLa Kyoto [1] = assay: solubility in G1/S (NP-40 vs SDS abundance) (log2 ratio); higher = more soluble; conditions: cell cycle stage: G1/S
# HeLa Kyoto [2] = assay: melting temperature (median over replicates), in situ; higher = more thermally stable
# HeLa Kyoto [3] = assay: solubility change mitosis vs G1/S (difference of NP-40 vs SDS log2 ratios) (log2 ratio difference); higher = more soluble in mitosis
# HeLa Kyoto [4] = assay: thermal stability score vs G1/S (z-score of summed log2 fold changes over temperatures); higher = more thermally stable than in G1/S
# [5] = cell cycle stage: early G1 (4.5 h after nocodazole release)
# 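Throughout, for melting temperature (median over replicates), in situ: HeLa Kyoto cells synchronized by double thymidine or nocodazole block, proteins quantified by TMT10plex mass spectrometry, three independent biological replicates.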
# 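Throughout, for solubility change mitosis vs G1/S (difference of NP-40 vs SDS log2 ratios): synchronized HeLa Kyoto cells (double thymidine block for G1/S, nocodazole release for mitosis), protein amounts in NP-40 versus SDS lysates quantified by mass spectrometry, three biological replicates.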
# 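Throughout, for solubility in G1/S (NP-40 vs SDS abundance): HeLa Kyoto cells arrested at G1/S by double thymidine block, proteins quantified by TMT10plex mass spectrometry in mild NP-40 versus SDS extracts, three biological replicates.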
# 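Throughout, for thermal stability score vs G1/S (z-score of summed log2 fold changes over temperatures): synchronized HeLa Kyoto cells, proteins quantified by TMT10plex mass spectrometry, three biological replicates, mitosis taken 0.5 h after nocodazole release, G1/S directly after double thymidine block.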
Sequence,solubility in G1/S (log2) (HeLa Kyoto [1]),melting temperature (HeLa Kyoto [2]; cell cycle stage: G1/S) [°C],melting temperature (HeLa Kyoto [2]; cell cycle stage: mitosis) [°C],solubility change mitosis (log2) (HeLa Kyoto [3]),thermal stability score (HeLa Kyoto [4]; [5]),thermal stability score (HeLa Kyoto [4]; cell cycle stage: mitosis)
MASILLRSCRGRAPARLPPPPRYTVPRGSPGDPAHLSCASTLGLRNCLNVPFGCCTPIHPVYTSSRGDHLGCWALRPECLRIVSRAPWTSTSVGFVAVGPQCLPVRGWHSSRPVRDDSVVEKSLKSLKDKNKKLEEGGPVYSPPAEVVVKKSLGQRVLDELKHYYHGFRLLWIDTKIAARMLWRILNGHSLTRRERRQFLRICADLFRLVPFLVFVVVPFMEFLLPVAVKLFPNMLPSTFETQSLKEERLKKELRVKLELAKFLQDTIEEMALKNKAAKGSATKDFSVFFQKIRETGERPSNEEIMRFSKLFEDELTLDNLTRPQLVALCKLLELQSIGTNNFLRFQLTMRLRSIKADDKLIAEEGVDSLNVKELQAACRARGMRALGVTEDRLRGQLKQWLDLHLHQEIPTSLLILSRAMYLPDTLSPADQLKSTLQTLPEIVAKEAQVKVAEVEGEQVDNKAKLEATLQEEAAIQQEHREKELQKRSEVAKDFEPERVVAAPQRPGTEPQPEMPDTVLQSETLKDTAPVLEGLKEEEITKEEIDILSDACSKLQEQKKSLTKEKEELELLKEDVQDYSEDLQEIKKELSKTGEEKYVEESKASKRLTKRVQQMIGQIDGLISQLEMDQQAGKLAPANGMPTGENVISVAELINAMKQVKHIPESKLTSLAAALDENKDGKVNIDDLVKVIELVDKEDVHISTSQVAEIVATLEKEEKVEEKEKAKEKAEKEVAEVKS [LETM1],0.088,52.9,52.3,-0.0749,-0.277,-1.56
MTSLMPGAGLLPIPTPNPLTTLGVSLSSLGAIPAAALDPNIATLGEIPQPPLMGNVDPSKIDEIRRTVYVGNLNSQTTTADQLLEFFKQVGEVKFVRMAGDETQPTRFAFVEFADQNSVPRALAFNGVMFGDRPLKINHSNNAIVKPPEMTPQAAAKELEEVMKRVREAQSFISAAIEPESGKSNERKGGRSRSHTRSKSRSSSKSHSRRKRSQSKHRSRSHNRSRSRQKDRRRSKSPHKKRSKSRERRKSRSRSHSRDKRKDTREKIKEKERVKEKDREKEREREKEREKEKERGKNKDRDKEREKDREKDKEKDREREREKEHEKDRDKEKEKEQDKEKEREKDRSKEIDEKRKKDKKSRTPPRSYNASRRSRSSSRERRRRRSRSSSRSPRTSKTIKRKSSRSPSPRSRNKKDKKREKERDHISERRERERSTSMRKSSNDRDGKEKLEKNSTSLKEKEHNKEPDSSVSKEVDDKDAPRTEENKIQHNGNCQLNEENLSTKTEAV [SREK1],-0.849,48.9,50.6,0.262,1.86,4.67
MSAPAGSSHPAASARIPPKFGGAAVSGAAAPAGPGAGPAPHQQNGPAQNQMQVPSGYGLHHQNYIAPSGHYSQGPGKMTSLPLDTQCGDYYSALYTVPTQNVTPNTVNQQPGAQQLYSRGPPAPHIVGSTLGSFQGAASSASHLHTSASQPYSSFVNHYNSPAMYSASSSVASQGFPSTCGHYAMSTVSNAAYPSVSYPSLPAGDTYGQMFTSQNAPTVRPVKDNSFSGQNTAISHPSPLPPLPSQQHHQQQSLSGYSTLTWSSPGLPSTQDNLIRNHTGSLAVANNNPTITVADSLSCPVMQNVQPPKSSPVVSTVLSGSSGSSSTRTPPTANHPVEPVTSVTQPSELLQQKGVQYGEYVNNQASSAPTPLSSTSDDEEEEEEDEEAGVDSSSTTSSASPMPNSYDALEGGSYPDMLSSSASSPAPDPAPEPDPASAPAPASAPAPVVPQPSKMAKPFGYGYPTLQPGYQNATAPLISGVQPSNPVYSGFQQYPQQYPGVNQLSSSIGGLSLQSSPQPESLRPVNLTQERNILPMTPVWAPVPNLNADLKKLNCSPDSFRCTLTNIPQTQALLNKAKLPLGLLLHPFRDLTQLPVITSNTIVRCRSCRTYINPFVSFIDQRRWKCNLCYRVNDVPEEFMYNPLTRSYGEPHKRPEVQNSTVEFIASSDYMLRPPQPAVYLFVLDVSHNAVEAGYLTILCQSLLENLDKLPGDSRTRIGFMTFDSTIHFYNLQEGLSQPQMLIVSDIDDVFLPTPDSLLVNLYESKELIKDLLNALPNMFTNTRETHSALGPALQAAFKLMSPTGGRVSVFQTQLPSLGAGLLQSREDPNQRSSTKVVQHLGPATDFYKKLALDCSGQQTAVDLFLLSSQYSDLASLACMSKYSAGCIYYYPSFHYTHNPSQAEKLQKDLKRYLTRKIGFEAVMRIRCTKGLSMHTFHGNFFVRSTDLLSLANINPDAGFAVQLSIEESLTDTSLVCFQTALLYTSSKGERRIRVHTLCLPVVSSLADVYAGVDVQAAICLLANMAVDRSVSSSLSDARDALVNAVVDSLSAYGSTVSNLQHSALMAPSSLKLFPLYVLALLKQKAFRTGTSTRLDDRVYAMCQIKSQPLVHLMKMIHPNLYRIDRLTDEGAVHVNDRIVPQPPLQKLSAEKLTREGAFLMDCGSVFYIWVGKGCDNNFIEDVLGYTNFASIPQKMTHLPELDTLSSERARSFITWLRDSRPLSPILHIVKDESPAKAEFFQHLIEDRTEAAFSYYEFLLHVQQQICK [SEC24B],-0.132,48.8,49.5,-0.119,1.03,1.85
MYFPSWLSQLYRGLSRPIRRTTQPIWGSLYRSLLQSSQRRIPEFSSFVVRTNTCGELRSSHLGQEVTLCGWIQYRRQNTFLVLRDFDGLVQVIIPQDESAASVKKILCEAPVESVVQVSGTVISRPAGQENPKMPTGEIEIKVKTAELLNACKKLPFEIKNFVKKTEALRLQYRYLDLRSFQMQYNLRLRSQMVMKMREYLCNLHGFVDIETPTLFKRTPGGAKEFLVPSREPGKFYSLPQSPQQFKQLLMVGGLDRYFQVARCYRDEGSRPDRQPEFTQIDIEMSFVDQTGIQSLIEGLLQYSWPNDKDPVVVPFPTMTFAEVLATYGTDKPDTRFGMKIIDISDVFRNTEIGFLQDALSKPHGTVKAICIPEGAKYLKRKDIESIRNFAADHFNQEILPVFLNANRNWNSPVANFIMESQRLELIRLMETQEEDVVLLTAGEHNKACSLLGKLRLECADLLETRGVVLRDPTLFSFLWVVDFPLFLPKEENPRELESAHHPFTAPHPSDIHLLYTEPKKARSQHYDLVLNGNEIGGGSIRIHNAELQRYILATLLKEDVKMLSHLLQALDYGAPPHGGIALGLDRLICLVTGSPSIRDVIAFPKSFRGHDLMSNTPDSVPPEELKPYHIRVSKPTDSKAERAH [DARS2],0.144,55.5,55.9,-0.114,-0.868,0.237
MATGLGEPVYGLSEDEGESRILRVKVVSGIDLAKKDIFGASDPYVKLSLYVADENRELALVQTKTIKKTLNPKWNEEFYFRVNPSNHRLLFEVFDENRLTRDDFLGQVDVPLSHLPTEDPTMERPYTFKDFLLRPRSHKSRVKGFLRLKMAYMPKNGGQDEENSDQRDDMEHGWEVVDSNDSASQHQEELPPPPLPPGWEEKVDNLGRTYYVNHNNRTTQWHRPSLMDVSSESDNNIRQINQEAAHRRFRSRRHISEDLEPEPSEGGDVPEPWETISEEVNIAGDSLGLALPPPPASPGSRTSPQELSEELSRRLQITPDSNGEQFSSLIQREPSSRLRSCSVTDAVAEQGHLPPPSAPAGRARSSTVTGGEEPTPSVAYVHTTPGLPSGWEERKDAKGRTYYVNHNNRTTTWTRPIMQLAEDGASGSATNSNNHLIEPQIRRPRSLSSPTVTLSAPLEGAKDSPVRRAVKDTLSNPQSPQPSPYNSPKPQHKVTQSFLPPGWEMRIAPNGRPFFIDHNTKTTTWEDPRLKFPVHMRSKTSLNPNDLGPLPPGWEERIHLDGRTFYIDHNSKITQWEDPRLQNPAITGPAVPYSREFKQKYDYFRKKLKKPADIPNRFEMKLHRNNIFEESYRRIMSVKRPDVLKARLWIEFESEKGLDYGGVAREWFFLLSKEMFNPYYGLFEYSATDNYTLQINPNSGLCNEDHLSYFTFIGRVAGLAVFHGKLLDGFFIRPFYKMMLGKQITLNDMESVDSEYYNSLKWILENDPTELDLMFCIDEENFGQTYQVDLKPNGSEIMVTNENKREYIDLVIQWRFVNRVQKQMNAFLEGFTELLPIDLIKIFDENELELLMCGLGDVDVNDWRQHSIYKNGYCPNHPVIQWFWKAVLLMDAEKRIRLLQFVTGTSRVPMNGFAELYGSNGPQLFTIEQWGSPEKLPRAHTCFNRLDLPPYETFEDLREKLLMAVENAQGFEGVD [NEDD4L],-0.0714,50,49.6,-0.189,0.949,2.33
MGGVGEPGPREGPAQPGAPLPTFCWEQIRAHDQPGDKWLVIERRVYDISRWAQRHPGGSRLIGHHGAEDATDAFRAFHQDLNFVRKFLQPLLIGELAPEEPSQDGPLNAQLVEDFRALHQAAEDMKLFDASPTFFAFLLGHILAMEVLAWLLIYLLGPGWVPSALAAFILAISQAQSWCLQHDLGHASIFKKSWWNHVAQKFVMGQLKGFSAHWWNFRHFQHHAKPNIFHKDPDVTVAPVFLLGESSVEYGKKKRRYLPYNQQHLYFFLIGPPLLTLVNFEVENLAYMLVCMQWADLLWAASFYARFFLSYLPFYGVPGVLLFFVAVRVLESHWFVWITQMNHIPKEIGHEKHRDWVSSQLAATCNVEPSLFTNWFSGHLNFQIEHHLFPRMPRHNYSRVAPLVKSLCAKHGLSYEVKPFLTALVDIVRSLKKSGDIWLDAYLHQ [FADS3],-0.263,54.5,53.9,0.0263,-1.31,-0.774
MSFPKAPLKRFNDPSGCAPSPGAYDVKTLEVLKGPVSFQKSQRFKQQKESKQNLNVDKDTTLPASARKVKSSESKESQKNDKDLKILEKEIRVLLQERGAQDRRIQDLETELEKMEARLNAALREKTSLSANNATLEKQLIELTRTNELLKSKFSENGNQKNLRILSLELMKLRNKRETKMRGMMAKQEGMEMKLQVTQRSLEESQGKIAQLEGKLVSIEKEKIDEKSETEKLLEYIEEISCASDQVEKYKLDIAQLEENLKEKNDEILSLKQSLEENIVILSKQVEDLNVKCQLLEKEKEDHVNRNREHNENLNAEMQNLKQKFILEQQEREKLQQKELQIDSLLQQEKELSSSLHQKLCSFQEEMVKEKNLFEEELKQTLDELDKLQQKEEQAERLVKQLEEEAKSRAEELKLLEEKLKGKEAELEKSSAAHTQATLLLQEKYDSMVQSLEDVTAQFESYKALTASEIEDLKLENSSLQEKAAKAGKNAEDVQHQILATESSNQEYVRMLLDLQTKSALKETEIKEITVSFLQKITDLQNQLKQQEEDFRKQLEDEEGRKAEKENTTAELTEEINKWRLLYEELYNKTKPFQLQLDAFEVEKQALLNEHGAAQEQLNKIRDSYAKLLGHQNLKQKIKHVVKLKDENSQLKSEVSKLRCQLAKKKQSETKLQEELNKVLGIKHFDPSKAFHHESKENFALKTPLKEGNTNCYRAPMECQESWK [HMMR],0.497,49.2,50.1,0.189,-0.359,-1.33
MKKVRLKELESRLQQVDGFEKPKLLLEQYPTRPHIAACMLYTIHNTYDDIENKVVADLGCGCGVLSIGTAMLGAGLCVGFDIDEDALEIFNRNAEEFELTNIDMVQCDVCLLSNRMSKSFDTVIMNPPFGTKNNKGTDMAFLKTALEMARTAVYSLHKSSTREHVQKKAAEWKIKIDIIAELRYDLPASYKFHKKKSVDIEVDLIRFSF [METTL5],-0.0292,58.9,63.4,-0.277,-0.685,-0.982
MAAASGSVLQRCIVSPAGRHSASLIFLHGSGDSGQGLRMWIKQVLNQDLTFQHIKIIYPTAPPRSYTPMKGGISNVWFDRFKITNDCPEHLESIDVMCQVLTDLIDEEVKSGIKKNRILIGGFSMGGCMAIHLAYRNHQDVAGVFALSSFLNKASAVYQALQKSNGVLPELFQCHGTADELVLHSWAEETNSMLKSLGVTTKFHSFPNVYHELSKTELDILKLWILTKLPGEMEKQK [LYPLAL1],0.361,52,52.3,-0.0182,1.32,0.974
MEGQRWLPLEANPEVTNQFLKQLGLHPNWQFVDVYGMDPELLSMVPRPVCAVLLLFPITEKYEVFRTEEEEKIKSQGQDVTSSVYFMKQTISNACGTIGLIHAIANNKDKMHFESGSTLKKFLEESVSMSPEERARYLENYDAIRVTHETSAHEGQTEAPSIDEKVDLHFIALVHVDGHLYELDGRKPFPINHGETSDETLLEDAIEVCKKFMERDPDELRFNAIALSAA [UCHL3],0.205,52.2,52.2,0.183,0.593,-0.422
